# Results as given in US20260250404A1 (Genmab, published 2026).
# Substitutions are numbered along the chain they refer to. Names and notes keep the numbering of the source.
# B1: IgG1-CD27-A-P329R-E345R (antibody)
# heavy: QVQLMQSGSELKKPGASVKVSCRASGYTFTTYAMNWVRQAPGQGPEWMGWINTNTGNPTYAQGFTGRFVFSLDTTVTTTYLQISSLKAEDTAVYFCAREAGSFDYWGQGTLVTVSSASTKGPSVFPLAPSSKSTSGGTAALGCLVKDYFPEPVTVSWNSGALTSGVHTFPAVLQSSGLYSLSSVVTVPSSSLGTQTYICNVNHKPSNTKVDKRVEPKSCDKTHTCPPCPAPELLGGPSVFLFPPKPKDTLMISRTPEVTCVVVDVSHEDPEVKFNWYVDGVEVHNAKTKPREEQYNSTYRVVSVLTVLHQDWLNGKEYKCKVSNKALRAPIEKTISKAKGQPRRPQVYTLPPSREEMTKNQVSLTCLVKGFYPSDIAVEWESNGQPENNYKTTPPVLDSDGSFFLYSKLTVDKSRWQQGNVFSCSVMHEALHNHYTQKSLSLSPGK
# light: QSALTQPASVSGSPGQSITISCTGTSSDVYYYNYVSWYQQHPGRAPKLVIYDVSNRPSGVSNRFSGSKSGNTASLTISGLRAEDEADYYCSSYTVNRVWVFGGGTKLTVLGQPKAAPSVTLFPPSSEELQANKATLVCLISDFYPGAVTVAWKADSSPVKAGVETTTPSKQSNNKYAASSYLSLTPEQWKSHRSYSCQVTHEGSTVEKTVAPTECS
# notes: also called IgG1-CD27-A-E345R-P329R; IgG-CD27-A-P329R-E345R
# B2: IgG1-ctrl-FERR (b12 antigen-binding domains, IgG1m(f)-L234F-L235E-G236R-K409R) (antibody)
# heavy: QVQLVQSGAEVKKPGASVKVSCQASGYRFSNFVIHWVRQAPGQRFEWMGWINPYNGNKEFSAKFQDRVTFTADTSANTAYMELRSLRSADTAVYYCARVGPYSWDDSPQDNYYMDVWGKGTTVIVSSASTKGPSVFPLAPSSKSTSGGTAALGCLVKDYFPEPVTVSWNSGALTSGVHTFPAVLQSSGLYSLSSVVTVPSSSLGTQTYICNVNHKPSNTKVDKRVEPKSCDKTHTCPPCPAPEFERGPSVFLFPPKPKDTLMISRTPEVTCVVVDVSHEDPEVKFNWYVDGVEVHNAKTKPREEQYNSTYRVVSVLTVLHQDWLNGKEYKCKVSNKALPAPIEKTISKAKGQPREPQVYTLPPSREEMTKNQVSLTCLVKGFYPSDIAVEWESNGQPENNYKTTPPVLDSDGSFFLYSRLTVDKSRWQQGNVFSCSVMHEALHNHYTQKSLSLSPG
# light: EIVLTQSPGTLSLSPGERATFSCRSSHSIRSRRVAWYQHKPGQAPRLVIHGVSNRASGISDRFSGSGSGTDFTLTITRVEPEDFALYYCQVYGASSYTFGQGTKLERKRTVAAPSVFIFPPSDEQLKSGTASVVCLLNNFYPREAKVQWKVDNALQSGNSQESVTEQDSKDSTYSLSSTLTLSKADYEKHKVYACEVTHQGLSSPVTKSFNRGEC
# B3: IgG1-b12-P329R-E345R (antibody)
# VH: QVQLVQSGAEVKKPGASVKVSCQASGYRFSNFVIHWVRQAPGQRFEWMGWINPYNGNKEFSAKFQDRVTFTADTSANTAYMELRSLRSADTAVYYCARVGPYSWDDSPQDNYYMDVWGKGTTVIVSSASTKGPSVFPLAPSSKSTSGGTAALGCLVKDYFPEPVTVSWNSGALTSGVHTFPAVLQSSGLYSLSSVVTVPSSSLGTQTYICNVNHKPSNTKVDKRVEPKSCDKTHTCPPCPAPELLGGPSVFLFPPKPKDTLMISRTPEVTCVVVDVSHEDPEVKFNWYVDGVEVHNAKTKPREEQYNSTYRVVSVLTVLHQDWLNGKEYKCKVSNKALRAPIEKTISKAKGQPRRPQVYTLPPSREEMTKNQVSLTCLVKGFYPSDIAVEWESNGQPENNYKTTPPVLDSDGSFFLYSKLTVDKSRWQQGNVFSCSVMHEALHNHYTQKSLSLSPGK
# VL: B2 light
# notes: also called ctrl; IgG1-b12-E345R-P329R
# Key:
# [1] = target: recombinant His-tagged human FcγRIa (Sino Biological 10256-H08S-B) (human, UniProt P12314 16-288); assay: SPR (Biacore), His-tagged FcγR captured on anti-His chip, antibody injected, resonance units after background subtraction
# Sequence of recombinant His-tagged human FcγRIa (Sino Biological 10256-H08S-B) (P12314 16-288 limits assumed, stated change not applied): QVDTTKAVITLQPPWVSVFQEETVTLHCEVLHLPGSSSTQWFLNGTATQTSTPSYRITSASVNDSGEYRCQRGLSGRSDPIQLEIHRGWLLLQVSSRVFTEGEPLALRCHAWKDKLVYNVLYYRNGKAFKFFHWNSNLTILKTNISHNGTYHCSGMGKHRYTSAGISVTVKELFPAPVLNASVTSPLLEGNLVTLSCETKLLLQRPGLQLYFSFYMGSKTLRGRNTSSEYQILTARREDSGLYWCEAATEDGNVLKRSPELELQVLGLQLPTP
# [2] = target: T1, human CD27 on the cell surface (T cells, transfected HEK293F cells, Daudi cells, NFκB-luc2/CD27 Jurkat cells) (human, UniProt P26842 20-240); assay: flow cytometry on CD4+ T cells in human healthy donor PBMC, FITC goat anti-human IgG F(ab')2, median FITC
# T1 construct: Full length human CD27, endogenous or transfected; also called TNFRSF7
# T1 sequence (P26842 20-240): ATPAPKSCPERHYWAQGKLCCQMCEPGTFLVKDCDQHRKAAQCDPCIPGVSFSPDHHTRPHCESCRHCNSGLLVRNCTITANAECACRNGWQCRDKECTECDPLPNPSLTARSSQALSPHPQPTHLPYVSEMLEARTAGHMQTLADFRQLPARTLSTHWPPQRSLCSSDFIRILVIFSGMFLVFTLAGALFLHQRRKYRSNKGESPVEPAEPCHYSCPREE
# [3] = target: T2, recombinant His-tagged human FcγRIIIa, 176-Val [V] / V158 variant (human, UniProt P08637 17-208); assay: SPR (Biacore), His-tagged FcγR captured on anti-His chip, antibody injected
# T2 construct: also called FcγRIIIa-V; FcγRIIIa-V158
# T2 sequence (P08637 other isoform, or with tags, fused parts or gaps mutant limits assumed): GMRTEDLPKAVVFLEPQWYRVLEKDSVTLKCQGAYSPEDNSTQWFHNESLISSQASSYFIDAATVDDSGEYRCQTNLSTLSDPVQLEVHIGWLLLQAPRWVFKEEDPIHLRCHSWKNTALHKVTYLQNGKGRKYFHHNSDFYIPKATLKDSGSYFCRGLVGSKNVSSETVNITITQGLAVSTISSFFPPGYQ
# [4] = target: T3, recombinant His-tagged human FcγRIIb (human, UniProt P31994 43-217, limits assumed); assay: as above
# T3 sequence (looked up): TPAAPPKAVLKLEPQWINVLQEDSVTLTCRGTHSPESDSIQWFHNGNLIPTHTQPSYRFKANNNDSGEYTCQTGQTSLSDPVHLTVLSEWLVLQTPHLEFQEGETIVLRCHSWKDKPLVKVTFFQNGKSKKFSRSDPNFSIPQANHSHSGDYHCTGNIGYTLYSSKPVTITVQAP
# [5] = target: T4, human complement protein C1q (from normal human serum) (human, UniProt P02745 23-245; P02746 28-253; P02747 29-245); assay: flow cytometry, C1q (20% normal human serum) binding to antibody bound on human T cells, FITC anti-C1q
# T4 construct: Native C1q supplied as 20% normal human serum
# T4 sequence (P02745 23-245, chain 1 of 3): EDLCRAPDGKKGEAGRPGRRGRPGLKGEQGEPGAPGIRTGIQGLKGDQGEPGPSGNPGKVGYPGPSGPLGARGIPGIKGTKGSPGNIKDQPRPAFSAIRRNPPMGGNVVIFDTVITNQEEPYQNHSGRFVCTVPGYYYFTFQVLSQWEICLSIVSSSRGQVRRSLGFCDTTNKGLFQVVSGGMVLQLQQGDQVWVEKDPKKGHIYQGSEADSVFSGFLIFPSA
# T4 sequence (P02746 28-253, chain 2 of 3): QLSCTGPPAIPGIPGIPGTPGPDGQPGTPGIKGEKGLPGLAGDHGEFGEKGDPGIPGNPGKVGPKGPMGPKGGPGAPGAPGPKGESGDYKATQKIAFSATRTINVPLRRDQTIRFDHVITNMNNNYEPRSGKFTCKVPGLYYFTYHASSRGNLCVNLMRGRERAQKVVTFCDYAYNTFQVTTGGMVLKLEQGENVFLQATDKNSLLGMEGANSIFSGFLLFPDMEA
# T4 sequence (P02747 29-245, chain 3 of 3): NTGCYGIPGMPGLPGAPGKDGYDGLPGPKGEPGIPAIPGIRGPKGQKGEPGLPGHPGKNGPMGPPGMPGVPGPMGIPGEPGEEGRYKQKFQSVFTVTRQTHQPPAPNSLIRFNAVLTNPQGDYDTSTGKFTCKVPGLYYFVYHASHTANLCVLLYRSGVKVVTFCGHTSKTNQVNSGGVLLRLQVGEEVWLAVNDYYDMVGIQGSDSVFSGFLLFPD
# [6] = target: T5, recombinant His-tagged human FcγRIIIa, 176-Phe [F] / F158 variant (human, UniProt P08637 17-208); assay: SPR (Biacore), His-tagged FcγR captured on anti-His chip, antibody injected
# T5 construct: also called FcγRIIIa-F; FcγRIIIa-F158
# T5 sequence (P08637 17-208 limits assumed, change not shown): as the sequence (P08637 other isoform, or with tags, fused parts or gaps mutant limits assumed) above, with V160F counted along it
# [7] = target: T6, recombinant His-tagged human FcγRIIa, 167-His [H] / H131 variant (human, UniProt P12318 34-218, limits assumed); assay: as above
# T6 construct: catalogue numbers differ; also called FcγRIIa-H; FcγRIIa-H131
# T6 sequence (looked up): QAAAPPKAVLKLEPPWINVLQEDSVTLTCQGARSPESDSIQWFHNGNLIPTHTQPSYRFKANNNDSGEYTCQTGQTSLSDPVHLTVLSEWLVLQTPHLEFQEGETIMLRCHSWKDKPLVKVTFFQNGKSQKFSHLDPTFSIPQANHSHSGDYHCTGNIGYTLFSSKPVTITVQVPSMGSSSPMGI
# [8] = target: T7, recombinant His-tagged human FcγRIIa, 167-Arg [R] / R131 variant (human, UniProt P12318 34-218, limits assumed); assay: as above
# T7 construct: catalogue numbers differ; also called FcγRIIa-R; FcγRIIa-R131
# T7 sequence (looked up): T6 sequence (looked up) with H134R
# [9] = target: T1, human CD27 on the cell surface (T …); assay: flow cytometry on CD8+ T cells in human healthy donor PBMC, FITC goat anti-human IgG F(ab')2, median FITC
# [10] = target: cynomolgus monkey PD-1 on transfected CHO-S cells (cynomolgus monkey, UniProt B0LAJ3 25-288); assay: flow cytometry on CHO-S cells transiently transfected with cynomolgus monkey PD-1, gMFI (PE)
# Sequence of cynomolgus monkey PD-1 on transfected CHO-S cells (B0LAJ3 entry or part of it limits assumed): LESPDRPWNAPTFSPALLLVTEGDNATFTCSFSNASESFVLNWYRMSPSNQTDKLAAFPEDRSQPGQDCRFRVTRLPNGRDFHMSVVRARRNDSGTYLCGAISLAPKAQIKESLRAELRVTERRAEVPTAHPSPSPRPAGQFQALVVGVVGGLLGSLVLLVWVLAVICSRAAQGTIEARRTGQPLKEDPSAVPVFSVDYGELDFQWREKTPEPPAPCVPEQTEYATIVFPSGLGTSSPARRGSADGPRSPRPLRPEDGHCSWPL
# [11] = target: T8, rat PD-1 on transfected CHO-S cells (rat, UniProt D3ZIN8 25-287); assay: flow cytometry on CHO-S cells transiently transfected with rat PD-1, gMFI (PE)
# T8 sequence: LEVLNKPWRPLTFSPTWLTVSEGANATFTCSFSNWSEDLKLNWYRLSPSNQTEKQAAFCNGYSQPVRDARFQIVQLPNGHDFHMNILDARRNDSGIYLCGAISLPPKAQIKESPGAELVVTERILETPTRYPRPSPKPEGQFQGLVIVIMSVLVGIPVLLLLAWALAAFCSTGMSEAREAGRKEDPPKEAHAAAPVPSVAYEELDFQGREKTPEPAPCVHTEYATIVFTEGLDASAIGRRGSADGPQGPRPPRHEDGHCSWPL
# [12] = target: T9, human FcγRIa on the cell surface (transfected CHO-S cells, M0/M1 macrophages, hMDM, FcγRI effector reporter … (human, UniProt P12314 16-374)); assay: flow cytometry on CHO-S cells transiently expressing human FcγRIa, % PE+ cells
# T9 construct: whole, on cells; also called CD64
# T9 sequence (P12314 16-374): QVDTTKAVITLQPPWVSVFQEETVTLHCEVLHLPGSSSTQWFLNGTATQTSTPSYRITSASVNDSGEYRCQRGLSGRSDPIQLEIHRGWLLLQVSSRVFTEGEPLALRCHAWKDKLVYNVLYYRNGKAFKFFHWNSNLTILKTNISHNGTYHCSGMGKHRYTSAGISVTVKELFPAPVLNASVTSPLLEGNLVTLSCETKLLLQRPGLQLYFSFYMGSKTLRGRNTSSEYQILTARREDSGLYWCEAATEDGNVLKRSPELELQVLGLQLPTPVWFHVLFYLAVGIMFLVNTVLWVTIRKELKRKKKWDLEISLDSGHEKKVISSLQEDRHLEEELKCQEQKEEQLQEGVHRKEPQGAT
# [13] = target: T10, human PD-1 on the cell surface (transfected CHO-S cells; PD-1 effector reporter Jurkat T cells) (human, UniProt Q15116 25-288); assay: flow cytometry on CHO-S cells transiently transfected with human PD-1, gMFI (PE)
# T10 construct: also called CD279
# T10 sequence (Q15116 25-288 limits assumed): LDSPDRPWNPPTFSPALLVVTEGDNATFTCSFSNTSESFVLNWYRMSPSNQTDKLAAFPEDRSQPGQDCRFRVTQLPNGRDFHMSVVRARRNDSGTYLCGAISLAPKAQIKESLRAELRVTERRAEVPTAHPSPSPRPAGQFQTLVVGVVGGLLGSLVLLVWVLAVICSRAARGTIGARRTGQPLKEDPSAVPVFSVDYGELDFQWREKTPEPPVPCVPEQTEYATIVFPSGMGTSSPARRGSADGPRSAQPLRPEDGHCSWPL
# [14] = target: T11, mouse PD-1 on transfected CHO-S cells (mouse, UniProt Q02242 25-288); assay: flow cytometry on CHO-S cells transiently transfected with mouse PD-1, gMFI (PE)
# T11 construct: whole, on cells
# T11 sequence (looked up): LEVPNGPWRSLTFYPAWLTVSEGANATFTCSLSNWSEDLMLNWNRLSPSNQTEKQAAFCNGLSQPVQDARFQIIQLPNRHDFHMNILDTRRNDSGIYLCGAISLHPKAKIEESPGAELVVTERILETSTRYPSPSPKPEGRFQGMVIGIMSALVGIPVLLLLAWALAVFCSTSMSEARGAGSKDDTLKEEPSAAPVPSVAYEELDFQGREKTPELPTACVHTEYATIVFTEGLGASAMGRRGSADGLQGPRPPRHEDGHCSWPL
# [15] = target: T9, human FcγRIa on the cell surface …; assay: flow cytometry on human monocyte-derived M0 macrophages, PE-labeled goat anti-human IgG, GeoMean-PE
binder,measurement,setting,value
B1,binding result,[1],binds
same,EC50 (read off the curve),[2],~0.03 µg/mL
same,binding result,[3],"no binding (tested: 10,000 nM)"
same,binding result,[4],"no binding (tested: 10,000 nM)"
same,binding result,[5],no binding (tested: 15 µg/mL)
same,binding result,[6],"no binding (tested: 10,000 nM)"
same,binding result,[7],"no binding (tested: 10,000 nM)"
same,binding result,[8],"no binding (tested: 10,000 nM)"
same,EC50 (read off the curve),[9],~0.03 µg/mL
B2,binding result,[10],no binding (tested: 10 µg/mL)
same,binding result,[11],no binding (tested: 10 µg/mL)
same,binding result,[12],no binding (tested: 10 µg/mL)
same,binding result,[13],no binding (tested: 10 µg/mL)
same,binding result,[14],no binding (tested: 10 µg/mL)
B3,binding result,[2],no binding (tested: 10 µg/ml)
same,binding result,[15],no binding (tested: 30 µg/mL)
